The source of these data is patent US20240398942A1 (CHIA TAI TIANQING PHARMACEUTICAL GROUP, published 2024).

As usually defined, the Kd is the free concentration of one partner at which half of the binding sites on the other are occupied at equilibrium, for simple one-to-one binding. Usually koff stands for the first-order rate constant of dissociation. The term kon denotes the rate constant with which the complex forms. One may read the EC50 as the concentration at which the effect is half-maximal. Low values mean greater potency, high ones weaker potency.

Changes are numbered by the printed parent chain. Read-outs that look alike come from different tables or passages of the source.

Assay [1] deals with T1, recombinant human CD40-his (Acro biosystems, Cat. No. CD0-H5228) (human, UniProt P25942 21-193).
T1 construct: Bought protein; also called human CD40-his protein; not shown: His tag
T1 sequence (P25942 21-193 limits assumed): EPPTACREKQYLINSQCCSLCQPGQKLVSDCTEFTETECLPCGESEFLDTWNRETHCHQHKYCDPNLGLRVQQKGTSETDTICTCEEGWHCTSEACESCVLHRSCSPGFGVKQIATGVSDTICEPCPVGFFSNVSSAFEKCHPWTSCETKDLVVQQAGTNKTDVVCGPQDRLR
Nature of the assay: BLI (Octet RED 96), antibody captured from cell supernatant on AHC sensor, human CD40-his as analyte, 1:1 fit. As for the experimental part:
After six days of culture in a shake flask, the cell supernatant containing the humanized antibodies huC1H1-V1 to huC1H1-V4 was harvested and the binding affinity of the antibodies to human CD40 was determined on an Octet system (Fortebio, Octet RED 96) according to the following procedures. Briefly, an anti-human IgG Fc capture (AHC) biosensor (from ForteBio) was pre-soaked in a 10 mM glycine solution (pH 1.5) for 3 s, and then soaked in a running buffer (PBST containing 0.5% w/v of BSA) for 3 s. The pre-soaking and soaking procedures were repeated 3 times. Then, the sensor was soaked in the cell supernatant containing the humanized anti-CD40 antibody, chimeric antibody C1H1 dissolved in HBS-EP⁺ buffer at a concentration of 5 μg/mL, or the benchmark dissolved in HBS-EP⁺ buffer at a concentration of 5 μg/mL for 120 s, and then soaked in the running buffer for 5 min. The new baseline was run in the running buffer for 180 s. The sensor was then soaked for 120 s in human CD40-his protein (Acro biosystems, Cat. No. CD0-H5228) 2-fold serially diluted from 40 nM in the running buffer and for 10 min in the running buffer […]. Finally, the sensor was pre-soaked in a 10 mM glycine solution (pH 1.5) for 3 s, and then soaked in the running buffer for 3 s. The pre-soaking and soaking procedures were repeated 3 times. The association and dissociation curves were fitted to a 1:1 Langmuir binding model using ForteBio Data Analysis 8.1.

In assay [2] the target is T2, human CD40-Fc protein (human, biotinylated (sites not given) in the capture ELISA and the benchmark blocking ELISA; not biotinylated in the ligand blocking ELISA).
T2 construct: also called biotinylated human CD40-Fc
T2 sequence (chain, as listed by the source limits assumed): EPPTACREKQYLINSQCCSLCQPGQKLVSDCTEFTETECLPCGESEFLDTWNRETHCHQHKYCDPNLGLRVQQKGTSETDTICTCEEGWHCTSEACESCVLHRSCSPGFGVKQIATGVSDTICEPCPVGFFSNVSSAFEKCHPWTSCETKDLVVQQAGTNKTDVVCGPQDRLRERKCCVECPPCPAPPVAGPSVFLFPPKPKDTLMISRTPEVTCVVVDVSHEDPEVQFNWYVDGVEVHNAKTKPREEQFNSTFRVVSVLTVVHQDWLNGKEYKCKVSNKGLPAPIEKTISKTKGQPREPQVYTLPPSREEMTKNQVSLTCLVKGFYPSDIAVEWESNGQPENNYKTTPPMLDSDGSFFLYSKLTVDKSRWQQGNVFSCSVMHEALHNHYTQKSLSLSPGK
Nature of the assay: capture ELISA: antibody captured on coated goat anti-human IgG F(ab')2, biotinylated human CD40-Fc 1.15 nM, streptavidin-HRP, OD(450-630). As for the experimental part:
(§1) The plate was washed once with a washing buffer (PBS+0.05% v/v of Tween-20, PBST) and then blocked with 200 μL/well blocking buffer (PBST containing 5% w/v of skim milk) for 2 h at 37° C. The plate was washed 4 times, and the anti-CD40 antibody of the present application, BM1, BM2, and a negative control hIgG (human immunoglobulin for intravenous injection (pH 4), Hualan Biological Engineering Inc.) serially 5-fold diluted from 66.7 nM in a PBST containing 2.5% w/v of skim milk was added at 100 μL per well. The plate was incubated for 40 min at 37° C. and washed 4 times. A biotinylated human CD40-Fc protein (amino acid residues 21-193 of SEQ ID NO: 30 linked to the N terminus of amino acid residues 99-330 of SEQ ID NO: 28, dissolved in PBST containing 2.5% w/v of skim milk at a concentration of 1.15 nM) was added at 100 μL/well to a 96-well plate coated with the anti-CD40 antibody. The plate was incubated at 37° C. for 40 min and washed 4 times. An HRP-labeled streptavidin (diluted at 1:10000 in PBST, Jackson Immuno Research, Cat. No. 016-030-084) was added at 100 μL/well, and the plate was incubated at 37° C. for another 40 min. After the last wash, 100 μL/well of ELISA substrate TMB (Innoreagents, Cat. No. TMB-S-002) was added and the plate was incubated at room temperature. After 3-10 min, the reaction was stopped by adding 1 M H₂SO₄ at 50 µL/well, and the absorbance of each well was read on a microplate reader using the dual wavelength mode (TMB detection wavelength: 450 nm, reference wavelength: 630 nm). Curves of OD(450-630) values vs. antibody concentration were plotted. Data were analyzed using Graphpad Prism software, and EC₅₀ values were obtained.
Background: In an ELISA, binding on a coated surface is turned into a signal by an enzyme label.

In assay [3] the target is T2, human CD40-Fc protein. The description is as above. As for the experimental part: as §1
This is another data set of the same source.

B1: humanized antibody huC1H1-V3 (antibody, human IgG2, kappa, V domains shown)
VH: EVQLVESGGGLVKPGGSLRLSCAASGFTFSNYGISWVRQAPGKGLEWVASISSGGDNTYYPDNVKGRFTISRDNAKNSLYLQMNSLRAEDTAVYYCARAGEKAMDYWGQGTLVTVSS
VL: EIVLTQSPATLSLSPGERATLSCRASQTINNNLHWYQQKPGQAPRLLIYYASQSISGIPARFSGSGSGTDFTLTISSLEPEDFAVYYCQQFSSWPLTFGGGTKVEIKR
notes: Human IgG2 / kappa; Tested as cell supernatant in the Octet assay
Consider B1, for which, in assay [1], the Kd stood at 5.41 nM, the koff amounted to 0.00283 s⁻¹ and the kon amounted to 523000 M⁻¹ s⁻¹.

B2: humanized antibody huC1H1-V4 (antibody, human IgG2, kappa, V domains shown)
VH: B1 VH with A49S
VL: B1 VL
notes: as for B1
As for B2, in assay [1], the Kd is 8.66 nM, the koff amounted to 0.00367 s⁻¹ and the kon is 424000 M⁻¹ s⁻¹.

B3: chimeric antibody 1D1 (antibody, human IgG1, kappa, V domains shown)
VH: EVQLQQSGPELVKPGASVKMSCKASGYTFTDYVMHWVKQKPGQGLECIGYINPYNDGTTYNEKFKGKATLTSDKSSNAAYLELSSLTSEDSAVYYCARGFLRESWFGYWGQGTLVTVSA
VL: DVLLTQTPLSLPVSLGDQASISCRSSQNIVHSNGNTYLDWYLQKPGQSPKLLIYKVSNRFSGVPDRFSGSGSGTDFTLKISRVEAEDLGVYYCFQGSHVPPTFGGGTKLELKR
notes: Mouse variable regions on human IgG1 / kappa constant regions
With B3, the EC50 with human CD40-Fc protein [2] is 15 nM.

B4: mouse anti-CD40 monoclonal antibody 1D1 (parent of chimeric antibody 1D1) (antibody, V domains shown)
VH: B3 VH
VL: DVLLTQTPLSLPVSLGDQASISCRSSQNIVHSNGNTYLDWYLQKPGQSPKLLIYKVSNRFSGVPDRFSGSGSGTDFTLKISRVEAEDLGVYYCFQGSHVPPTFGGGTKLELK
notes: Parent mouse antibody of chimeric 1D1; also called parent antibody
B4 returned an EC50 with human CD40-Fc protein [2] of 8.7 nM.

B5: chimeric antibody 1A3 (antibody, human IgG1, kappa, V domains shown)
VH: EVQLQQSGPELVKTGASVKISCKASGYSFIGYYLHWVKQSLGKGLEWIGYISCHDGTIIYNQKFKGKATFTLDTSSSTAYMQFSSLTSEDSAVYFCARFLNYYGSNYAMDYWGQGTSVTVSS
VL: DIVMTQSHKFMSTSVGDRVSITCKASQDVGPAVAWYQQKPGQSPKLLIYWASTRHTGVPDRFTGSGYGTDFTLTINNVQSEDLADYFCQQYFTYPLTFGGGTKLEIKR
notes: as for B3
Take B5: the EC50 with human CD40-Fc protein [3] turned out to be 1.33 nM.

B6: mouse anti-CD40 monoclonal antibody 1A3 (parent of chimeric antibody 1A3) (antibody, V domains shown)
VH: B5 VH
VL: DIVMTQSHKFMSTSVGDRVSITCKASQDVGPAVAWYQQKPGQSPKLLIYWASTRHTGVPDRFTGSGYGTDFTLTINNVQSEDLADYFCQQYFTYPLTFGGGTKLEIK
notes: Parent mouse antibody of chimeric 1A3; also called parent antibody
As to B6, the EC50 with human CD40-Fc protein [3] was 0.592 nM.
